By stoichiometry N is commonly meant the number of molecules, sites or subunits per partner or assembly.

The values below come from PMC10241002 (Autophagy, 2022).

Where a chain is given by its changes, count along the chain named. Numbers in names are those of the source.

The series deals with the molecule itself. The series is described as follows: single-molecule fluorescence stoichiometry analysis.

B1: Atg9-GFP (purified, GFP-3xFLAG fusion) (natural protein, S. cerevisiae, UniProt Q12142 1-997, looked up)
chain: MERDEYQLPNSHGKNTFLSRIFGLQSDEVNPSLNSQEMSNFPLPDIERGSSLLHSTNDSREDVDENDLRVPESDQGTSTEEEDEVDEEQVQAYAPQISDGLDGDHQLNSVTSKENVLETEKSNLERLVEGSTDDSVPKVGQLSSEEEEDNEFINNDGFDDDTPLFQKSKIHEFSSKKSNTIEDGKRPLFFRHILQNNRPQRDTQKLFTSSNAIHHDKDKSANNGPRNINGNQKHGTKYFGSATQPRFTGSPLNNTNRFTKLFPLRKPNLLSNISVLNNTPEDRINTLSVKERALWKWANVENLDIFLQDVYNYYLGNGFYCIILEKILNICTLLFVVFVSTYMGHCVDYSKLPTSHRVSDIIIDKCYSNSITGFTKFFLWMFYFFVILKIVQLYFDVQKLSELQNFYKYLLNISDDELQTLPWQNVIQQLMYLKDQNAMTANVVEVKAKNRIDAHDVANRIMRRENYLIALYNSDILNLSLPIPLFRTNVLTKTLEWNINLCVMGFVFNESGFIKQSILKPSQREFTREELQKRFMLAGFLNIILAPFLVTYFVLLYFFRYFNEYKTSPGSIGARQYTPIAEWKFREYNELYHIFKKRISLSTTLANKYVDQFPKEKTNLFLKFVSFICGSFVAILAFLTVFDPENFLNFEITSDRSVIFYITILGAIWSVSRNTITQEYHVFDPEETLKELYEYTHYLPKEWEGRYHKEEIKLEFCKLYNLRIVILLRELTSLMITPFVLWFSLPSSAGRIVDFFRENSEYVDGLGYVCKYAMFNMKNIDGEDTHSMDEDSLTKKIAVNGSHTLNSKRRSKFTAEDHSDKDLANNKMLQSYVYFMDDYSNSENLTGKYQLPAKKGYPNNEGDSFLNNKYSWRKQFQPGQKPELFRIGKHALGPGHNISPAIYSTRNPGKNWDNNNNGDDIKNGTNNATAKNDDNNGNNDHEYVLTESFLDSGAFPNHDVIDHNKMLNSNYNGNGILNKGGVLGLVKEYYKKSDVGR
Consider B1, for which the binding result is recorded as “binds”.

B2: Atg9^F627A-GFP (purified, GFP-3xFLAG fusion) (natural protein, S. cerevisiae, UniProt Q12142 1-997, looked up)
chain: B1 chain with F627A
Take B2: the “stoichiometry N” value is 3.
